B1: human alanine-glyoxylate aminotransferase (AGT), wild type, major allele haplotype (enzyme, UniProt P21549 1-392, looked up)
chain: MASHKLLVTPPKALLKPLSIPNQLLLGPGPSNLPPRIMAAGGLQMIGSMSKDMYQIMDEIKEGIQYVFQTRNPLTLVISGSGHCALEAALVNVLEPGDSFLVGANGIWGQRAVDIGERIGARVHPMTKDPGGHYTLQEVEEGLAQHKPVLLFLTHGESSTGVLQPLDGFGELCHRYKCLLLVDSVASLGGTPLYMDRQGIDILYSGSQKALNAPPGTSLISFSDKAKKKMYSRKTKPFSFYLDIKWLANFWGCDDQPRMYHHTIPVISLYSLRESLALIAEQGLENSWRQHREAAAYLHGRLQALGLQLFVKDPALRLPTVTTVAVPAGYDWRDIVSYVIDHFDIEIMGGLGPSTGKVLRIGLLGCNATRENVDRVTEALRAALQHCPKKKL
modifications: pyridoxal-5'-phosphate (PLP) covalently bound to Lys209
notes: Alanine-glyoxylate aminotransferase (AGT, EC 2.6.1.44), human, major allele haplotype; C-terminus at Leu392; called the complete protein; 86 kDa homodimer; In the import assay in fibroblasts the protein was EGFP-tagged (pEGFP-C1 derived); the functional row uses this molecule; also called AGT(wt); wt-EGFP-AGT (in the import assay); source: E. coli BL21(DE3) RIL, purified (Ni-NTA, TEV cleavage, …)

Columns and labels:
[1] = molecular target: B1; experiment: ITC; conditions: both partners purified
[2] = molecular target: B1; experiment: SEC-MALS; analytical gel filtration and static light scattering (MiniDAWN); complex formed by mixing purified Pex5p(C) and AGT; single components also run; conditions: both partners purified
[3] = molecular target: B1; experiment: ITC; conditions: both partners purified; remark: listed apart in the source
[4] = molecular target: the molecule itself; experiment: SEC-MALS; analytical gel filtration and static light scattering (MiniDAWN); complex formed by mixing purified Pex5p(C) and AGT; single components also run

| Binder | stoichiometry N [1] | stoichiometry N [2] | Kd [3] | stoichiometry N [4] |
| --- | --- | --- | --- | --- |
| C-terminal cargo-binding segment of human Pex5p (residues 315-639) (domain or fragment, Peroxisomal import receptor Pex5p, human, residues 315-639 (seven TPR segments and C-terminal helical bundle); In the functional rows the receptor was the endogenous Pex5p of human fibroblasts; this molecule stands for it; also called Pex5p(C); Pex5p receptor; source: E. coli BL21(DE3) RIL, purified (Ni-NTA, TEV cleavage, second Ni-NTA, gel filtration); not shown: His6, N-terminal, cleaved; GST, …) not shown | 1 | 1 Pex5p(C) per AGT chain | 3.5 ± 0.4 µM |  |
| B1 |  |  |  | 2 |

Reference: paper PMC3328432 (PLoS Biology, 2012)
